Laboratory results published in patent publication US20180244777A1 (NUMAB THERAPEUTICS, published 2018).

Target: human CD3ε expressed on the cell surface of T cells (Jurkat cells; human CD8+ T cells) (human, UniProt P07766 23-207)
Test: cell-based or functional assay

B1: anti-IL5R×CD3ε scDb containing Numab's anti-CD3 domain (humanized clone 6), Example 9 (bispecific antibody)
chain: DIQMTQSPSSLSASVGDRVTITCQASQNIYSNLAWYQQKPGKAPKLLIYRASTLASGVPSRFSGSGSGTDFTLTISSLQPEDFATYYCQSNYGINYYGAAFGQGTKLTVLGGGGGSEVQLVESGGGLVQPGGSLRLSCAASGFPLSSYAMIWVRQAPGKGLEWIGMILRAGNIYYASWVKGRFTISRDNSKNTVYLQMNSLRAEDTAVYYCARRHYNREGYPIGIGDLWGQGTLVTVSSGGGGSGGGGSGGGGSGGGGSDIQMTQSPSSLSASVGDRVTITCQSSESVYNNKRLSWYQQKPGKAPKLLIYTASSLASGVPSRFSGSGSGTDFTLTISSLQPEDFATYYCQGEFTCSNADCFTFGQGTKLTVLGGGGGSEVQLVESGGGLVQPGGSLRLSCAASGFSLSSYDMTWVRQAPGKGLEWIGIIYVSGSAYYASWAKGRFTISRDNSKNTVYLQMNSLRAEDTAVYYCARINYGLDLWGQGTLVTVSS
EC50 in the dose-response curve of specific lysis of CHO-IL5R target cells at 64 hours: 0.31 nM
